In the DeepSol protein solubility set:

Assay: soluble on expression in E. coli; label from the status in PepcDB or PDB records

Row | Sequence | soluble on expression in E. coli
1 | MLRTYTVLLLIAHAHVQSHFYYPCSARIFWKIHALINNTDGFVTREVKLGYFIGYKEHRSSAERKANAHGFHGFFFSEITHTFSEMIESLEHANTGAFDDIRTDSETHFFDLDDAERMIERDSIERTNNLLENSRKFKNVRDETHRGKTRRGETHRGETHRGETHRDETHRGETHRDETHRGETHRGETHRGETHRGETHLDETHRGETHRGDTHRGETHRGETHRDDTFRGETLRGETHLDETHRGETHRDETHRGETHRDETHRDETHRDETHRGETHRGETHRGETHRDDTFRGETFRGETHRDETHRGETHRDETHRGETHRGETHRGETHRGETHRGETHRGETHRGETHRGETHRDETFRGETHRGETHRGETHRDDTHRGETHRGETHRGETHRGETHRGETHRGETHRGETHRGETHRGETHRGETHRGETHCDDTHRGETRRAETHRGETHRGETHRDETHRDDTHRGETHRGETHRGETHRGETHRGETHRDETHRGETHRGDTHRGETHRGETHRGETHRGETHRGETHRGETHRGETHRGETHRGETHRDDTHRGETRRAETHRGETHRGETHRDETHRGETHRGETHRGETHRGETHRGETHRDETHRDDTFRGETLRGETHRDETHRGETHRDDTFRGETLRGETHRDETHRGETHRDETHRGETHRGETHRGETHRGETHRGETHRGETHRGETLRGETRCDDTQRGETRRAETHRGETLRGETHRDESHRGETHRGETHRGETHRGETHRGETHRDETHRDDTFRGETLRGETHRDETHRGETHRDDTFRGETLRGETHLDETHRGETHRDETHRGETHRGETHRGETHRDETHRGETHRGETHRGETHRGETHRAETFRGETHRAETHRGETNRGETHRGETHRGETHRGETNRGETHRGETHRGETHRGDTHRAETHRDETHRGETNRDETHRGETHRGETHRGDTNRGETHRGETFRGETHRGETHRGETHRGETHRGETHRGETHRGETHRGETHRDDTFRGETHRGETHCGETHRGETHRGETLRGETLRGETHRDETHRGETLRDETHRGETLRGETHRGETLRGETHRGETHRDDTFRGETLRGETHLDETHRGETHRDETHRGETHRGETHRGETHRGETHRGETHRGETHRGETHRDETHRDDTFRGETLRGETLRDETHRGETHRDDTFRGETHRDETHRGETLRGETHRDETHRDETHRDDTHRGETLRGETHLDETHRGETHRDETHRGETHLDETHRGETHRDETHRGETHRDETHRGETHRGETHVWKARENSGMF | not soluble
2 | MHYCPGCSHGVVHKLIAEVIEEMGLTEETIGIAPVGCSVFAYRYIDIDWQEAAHGRAPALATAVKRLNPSKLVFTYQGDGDLAAIGTAETIHAANRGENIAIIFINNGIYGMTGGQMAPTTLEGMVTATCPQGRNVELNGYPLKIADMLALLDGTCLVTRQTVHNAAAVRKTKKMIQKAFENSMNRKGTSIVEVVSTCNTGWKMSPAASNDWMMENMAKQYPLGDLKNID | not soluble
3 | MSDEKKKKRGFFRYSVLTTSSFSSWRRSSTSGSISQSSRTTSKTTTSSSVTSSNPINAPPPTATSSSSVLPSTSSEPPPPASAPPRISIYHKMVPSKSKFRQCDVCEHIFIFDFVRKQHLDDVYACNVCGIRVHKGCLDRVKNDCKITTQYMGGILENAVIQSNKKQWEKPTTASISKSLTTSPTCSTSTTMSPAGVEKNVHKTRKLISMTTSTLDDVTTFNSEINEEMDEETVLMTWEDVTIKLTDVDVMTKIGDGRFGSVYFGGYHGNAAVRFVNMNYLSQEDRRADVFATEIVSAYKNSRHDHIALFYGYVSDPVTNTYAIVTNFYQHNTLYHRIHEQLSEDFDQSWTFQISLQICQAMSYLHKKKILHRDLRTKNILLDNPNRVVVTDFALMKLERLENPRRNCTLLIPNHWIDYLSPEIAGNLMIDWRGDVLFQHELPFSQESDVYSFGTIFFELLLRRMPTGCDSWDQKLYAKMCGQKAALQRLDAQLQKIDGKLHELLLECWSSQPEKRPSFQQIVKRITVQMPRKESNKQKRRSTAHENPLF | not soluble
4 | EKALSKQYLQTAKDKITSLKNLKVIAITGSFGKTSTKNFLLQILQTTFNAHASPKSVNTLLGLANDINQNLDDRSEIYIAEAGARNKGDIKEITCLIEPHLVVVAEVGEQHLEYFKTLENICETKAELLDSKRLEKAFCYSVEKIKPYAPKDSPLIDYSSLVKNIQSTLKGTSFEMLIGSVWERFETKVLGEFSAYNIASAILIAKHLGLETERIKRLVLELNPIAHRLQLLEVNQKIIIDDSFNGNLKGMLEGIRLASLHKGRKVIVTPGLVESNTESNEALAQKIDGVFDVAIITGELNSKTIASQLKTPQKILLKDKAQLENILQATTIQGDLILFANDAPNYI | not soluble
5 | MGHHHHHHSHDVPEMPSIPNPFPELCCSPFTSVLSADLFPKANSRKKQVIKVYSEDETSRALDVPSDITARDVCQLLILKNHYIDDHSWTLFEHLPHIGVERTIEDHELVIEVLSNWGIEEENKLYFRKNYAKYEFFKNP | not soluble
6 | MAHHHHHHSLAEQIDLKTFKTDVADYEAARPEYPIGITDWITDEFLIDETSIILELGAGTGKFTPRIIASHPKEIIAVDVYPEMLDVLRKKFPNVDCRAGSAMAIPLEDESVDLVLCAQCFHWFANEEAMKEIYRVLKPNGKLGLVWNTRDDTVPWIEKVSKILGRYRKDAPSFVSWKWAELFPGHGFGKLRYCAFPFSRCLTVEELHTLMNSFSFIYKLPEEEKEKVHAELDEIAKTIPRVQNTDQIKLCYQTMAFSSEKEPAKEG | soluble
7 | MTKAELRRRARAAWRRLDLKALSRAVGAALLPWLRERGFRHILLYHPLPHELNLLPLMEAYPARYYLPKVAGKGLTVHPFGPLAPGPFGLLEPTTPPEDPRVLDLVVVPGLAFDREGYRLGHGQGFYDRFLKEVRAATVGVVPQALLFPALPRDPWDVPVDHLATEAGVEAVKRPAPGPGGLLD | soluble
8 | MGDVIKVLDAQVRESLSGLPELHINFRARIILNPEDPRVDSIPPLEEVRIATYTRKKIGDIEPGDRFIEIRGTIAKVYRVLTYDACPECKKKVDYDPGTGVWICPEHGEVEPIKMTILDFGLDDGTGYIRVTLFGDDAEELLGVSSEEIAEKIKELENSGLTTKEAARKLAEEEFYKIIGKEIVVRGNVIEDRFLGLILRASSWEEVDYRKEIENIKEELEKLGVMLEHHHHHH | soluble
9 | LKMTKVMVSEAGASVYSASELAAKEFPDLDVSIRGAVSIARRLQDPLAELVKIDPKSIGVGQYQHDVSQLKLARGLDAVVEDCVNAVGVDVNTASVALLARISGLNTTLAQNIVAHRDENGAFKTRAALKKVSRLGEKTFEQAAGFLRVMTGDNPLDSSAVHPEAYPLVQRIAAETDRDIRSLIGDASFLKRLDPKKFTDETF | not soluble
10 | MGSDKIHHHHHHMYSDLNEGVKPYRMTKSHKNIKQCDLLIAGGAAVGLTLAIALKQAAPELKINIVDAAPQEVIPVSNIRALALAAASIRMLKQLQCWEHIAPHAQPIHSMIITDAYTNDPVKPTLLTFEGDITPNEPFAAMVEHKELLNALKKRAKDLDIPFITNMRIVDFHQEDQHTTVTLSNKEIWQTKLLIAADGAHSKLREKAGLKKFSHSYTQTAIICTVEHEKPHHGQAIQHFLPAGPFALLPLKGNRSAIVWNEDHKTAQYYLKADALIFETEIEKRIGHRYGKLSWNGERQGFPLNLSLTRQCIKPRFALIGDAAHTIHPLAGQGLNLGLRDSAALAEVIIETARLGLDIGSLTALERYQSWRRFEIVRMALSNDWLNKLFSNDNLLLRTLRDVGLGIVNQTPKVKKYFIQEAAGLTPHAPRLLHGLPL | not soluble
11 | MAHHHHHHMFLTFVRHTPPKTPRNVFFPWQNFSIHKSGSFLEKNRLALRVPINLTKFEIREYLRKIYNAKVIKVNTLIKVPERRRNLTDFRFNYYRNGPRYKKAIITLEHEVPDSVKMIQSCKNIGRNPYITKKNVIYGVRSDVKITPTRSQLWQMGECRYSWRLPLTNLLADYKMNLNPDLRIDENLVQLAPDMTKPFMHSGISSQTFKPSSVPEQTFPKVIFFFFQKGDVLA | soluble
12 | MNEKELADSVFGGLMAKAMGKMVHESEICPLVDQIEGKGQTNEELQGLRLSLSDLLLRHPDKFINCGNRNWRLNQNNHAFQQLAESISDKKSGKGGKRSARGGSNLPSFNRARSGGIPRNHNQTHGFRQSAPAHRGHHRPPAGNHGSSFRPNLNISQPNPSNDYSKMTGLHYPVSRNVLASNNGSNSRFSNQPPRREDHHEKMIMRTPYRDPSPRRGNNYGDIRGRPDSRDGYNGDRDSTRYSSPRRNEQPGRPSSRGSNISDYSQFSSDTNAESNTERRSRPDASSPDLADLARRFNSSSINVQPQPLESVASSDVLSKKIAKAVRKIMKKLNEGEKLSLENLFDEIERKNKILIPGKNGKEKEDFLKDLKKIMPKLLSALTIDTETGDLTWNEAAVTTDSPIHEYMEDDLHYYVVDYVKMLDKARFRVTDEAERLSNATGVRMERTCEKLTYVLFITFEGEYRYASGSKTEVLKISKITTVGDAPEFYQTSFEHKIFENVPANALVKCGIVRYQNVQKFAVRPEEYIKPYEKMNQEIQDFMSQIRNEKSVPFEMWRPNHACLVQLNDSTTILKWSRAMIIKIETQLIFLFILDSGFRKVVPSSDLRLMPQKFAKLPPFAIPCTLDESEDDKDNIEFGGKEYLSNGPGNLSVTCSGAATASDGILTYPIKLFSTCHGGPLTNIKDVFI | not soluble
13 | APNVDLHCHSTVSDGSMPPAAVARRAHANGVDVWALTDHDEIGGVAEAAQAAAALGMRFVAGVEISVTWAGLTVHIVGLRVDPANEALVQGLRDTRAGRAARAVQIGERLAGLGMPGAYEGALPFAGNPELISRTHFARFLVEAGYCPDVQTVFNKYLGDDCPGHVPMQWASLAEAVGWIRGAGGCAVIAHPGRYKYSPMQFDALYDEFLQLGGTGIEVVTGSHTSEEARRYAEVARRHGFLASRGSDFHSPTESRVDLGRLPPLPPDLKPVWHDW | not soluble
14 | MPTPCYISITGQTQGNITAGAFTADSVGNIYVQGHEDEMLVQEFLHNVTVPTDPQSGQPAGQRAHKPFIFTVALNKAVPLMYNALASGEMLPTTELHWWRTSVEGKQEHYFTTRLTDSTIVDMKLHMPHCQDPAKREFTQLLEVSLAYRKIEWEHVKSGTSGADDWRAPLEA | soluble
15 | GMNQRDVILDCEKKLLTAIQNNDVESLEVLLHDDLLFIIPSGETVTKETDIAAYSSGKIALRAVVPSDYIIRIIHDTVVVSVNIEIKGEYMEHTLDNTFRYLRVWKLFDGNWKVIAGSCTAIG | soluble
16 | EVQLQESGPSLVKPSQTLSLTCSVTGEPITSGFWDWIRKFPGNKLEFMGYIRYGGGTYYNPSLKSPISITRDTSKNHYYLQLNSVVTEDTATYYCARSRDYYGSSGFAFWGEGTLVTVSAAKTTPPSVYPLAPGCGDTTGSSVTLGCLVKGYFPESVTVTWNSGSLSSSVHTFPALLQSGLYTMSSSVTVPSSTWPSQTVTCSVAHPASSTTVDKKLE | soluble
17 | MRCPYCQYEDTQVKDSRPSEEGTVIRRRRICSVCGGRFTTFERVQLRELLVLKKSGRYEPFDRDKLMRSVEIAVRKRGIDPDYIERVISGIVRQLESLGEPEISSEKIGLLVMKALKSIDDIAYIRFASVYRDFRNASDFHDVIEELSKGITDTESCFDE | not soluble
18 | MGSDKIHHHHHHMKKITKIEGNLANSFIKPKTRVVAYCRVSTDSNEQLVSLQAQKAHYETYIKANPEWEYAGLYYDEGISGTKKENRSDLLRMLSDCETGRIDLIITKSISRFARNTTDCLEMVRKLIDLGVHIYFEKENINTGSMESELMLSILSGLAESESISISENTKWAIQRRFQNGTFKISYPPYGYQNIDGQMIVNPKQAEVVKYIFAEVLSGKGTQKVANDLNQKGIPSKRRGRWTATTIRGILTNEKYTGDVILQKTYTDSHFNRHTNYGEKNMYLVENHHEAIISHEDFQAVDAILNQRAKEKSIEKRNSKYLNRYSFSSKIICSECGSTFKRRIHSSGRKYIAWCCSKHISNITECSMQFIRDDDIKTAFVTMMNKLIFGQKFILRPLLEGLRNQNNAASFHRIEELEIKIENNMEQSQVLTGLMAKGYLEPALYNKEKNSLVQERERLLAEKDQLTRFVNGNLAKVEEVNHLLRFATKSKMLTAYEDELFENYVEKIIVFSREEVGFELKCGITLKERLVN | not soluble
